Measured values: patent US20250289885A1 (TRUSTEES OF BOSTON UNIVERSITY, published 2025)
Blank lines part the entries; values can stand above or below the binder they belong to.

How the values were obtained:
[1] = target: T1, Notch1-Gal4 chimeric receptor (hN1 ECD-Gal4 ICD) on CHO-K1 cells (human, UniProt P46531 19-1735); experiment: fluorescence microscopy of JFX650-labelled probody on CHO-K1 cells expressing Notch1-Gal4
T1 construct: extracellular domain; H2B-mTurq2 marker; also called Notch1-Ga4; NOTCH1 ECD-GAL4 ICD; not shown: transmembrane segment and Gal4 intracellular domain
T1 sequence (P46531 19-1735, stated change not applied): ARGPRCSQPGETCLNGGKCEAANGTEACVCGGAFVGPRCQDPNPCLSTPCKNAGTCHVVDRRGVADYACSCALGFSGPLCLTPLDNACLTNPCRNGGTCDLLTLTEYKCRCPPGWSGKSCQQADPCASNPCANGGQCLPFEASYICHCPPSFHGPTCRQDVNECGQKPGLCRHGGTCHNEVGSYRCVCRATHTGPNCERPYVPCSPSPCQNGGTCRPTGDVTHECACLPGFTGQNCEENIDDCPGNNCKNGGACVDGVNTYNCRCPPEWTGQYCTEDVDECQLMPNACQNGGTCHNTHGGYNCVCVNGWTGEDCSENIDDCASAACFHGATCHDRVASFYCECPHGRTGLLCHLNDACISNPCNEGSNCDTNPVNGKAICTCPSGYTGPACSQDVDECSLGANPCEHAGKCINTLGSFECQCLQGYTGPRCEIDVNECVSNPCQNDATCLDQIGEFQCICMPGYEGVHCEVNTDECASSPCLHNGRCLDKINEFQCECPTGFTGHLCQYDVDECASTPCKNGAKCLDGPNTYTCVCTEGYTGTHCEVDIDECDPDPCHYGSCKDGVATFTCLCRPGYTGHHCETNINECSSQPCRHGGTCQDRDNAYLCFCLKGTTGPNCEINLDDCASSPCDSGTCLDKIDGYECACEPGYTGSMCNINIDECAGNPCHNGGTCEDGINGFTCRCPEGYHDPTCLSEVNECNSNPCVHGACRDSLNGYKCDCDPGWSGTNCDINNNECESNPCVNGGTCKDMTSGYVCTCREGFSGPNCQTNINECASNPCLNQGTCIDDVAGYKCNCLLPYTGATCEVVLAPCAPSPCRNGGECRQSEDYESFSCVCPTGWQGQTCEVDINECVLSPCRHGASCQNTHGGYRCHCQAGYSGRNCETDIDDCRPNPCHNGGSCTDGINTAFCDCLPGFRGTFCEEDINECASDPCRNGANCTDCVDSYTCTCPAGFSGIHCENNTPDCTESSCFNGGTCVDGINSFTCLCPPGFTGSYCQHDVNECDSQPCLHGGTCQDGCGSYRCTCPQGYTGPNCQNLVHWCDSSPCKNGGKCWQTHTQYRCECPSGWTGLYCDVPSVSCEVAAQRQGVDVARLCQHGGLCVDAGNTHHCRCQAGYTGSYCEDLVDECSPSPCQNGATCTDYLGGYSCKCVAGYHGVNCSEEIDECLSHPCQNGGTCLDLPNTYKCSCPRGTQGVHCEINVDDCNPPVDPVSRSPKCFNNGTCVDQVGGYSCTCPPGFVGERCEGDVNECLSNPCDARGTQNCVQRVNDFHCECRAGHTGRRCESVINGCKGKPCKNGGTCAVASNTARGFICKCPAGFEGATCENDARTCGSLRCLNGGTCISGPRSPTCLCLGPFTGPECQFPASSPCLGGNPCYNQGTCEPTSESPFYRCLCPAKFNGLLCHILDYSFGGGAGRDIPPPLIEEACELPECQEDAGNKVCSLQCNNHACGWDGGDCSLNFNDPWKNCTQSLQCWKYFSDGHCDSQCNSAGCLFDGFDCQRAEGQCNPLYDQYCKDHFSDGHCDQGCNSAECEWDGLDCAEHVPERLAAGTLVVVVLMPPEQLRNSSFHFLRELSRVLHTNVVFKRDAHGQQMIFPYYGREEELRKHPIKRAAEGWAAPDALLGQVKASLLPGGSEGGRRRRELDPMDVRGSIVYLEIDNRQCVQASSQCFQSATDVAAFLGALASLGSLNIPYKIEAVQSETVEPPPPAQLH
Text: FIGS. 30A and 30B present data showing anti-NRR1-based probodies can bind Notch1 receptors following deletion of the S1 loop (ΔS1) containing the NRR's furin cleavage site. The probodies used represent the anti-NRR1 scFv fused to with a soluble mutant NRR (V1667D) from Notch1, linked together via a TEV protease substrate sequence. The probodies were also fused with a HaloTag domain, which remains attached to the anti-NRR scFv following TEV cleavage. CHO-K1 cells expressing a Notch1-Gal4 chimeric receptor were treated with intact (uncleaved) and TEV protease-cleaved versions of the indicated probodies. The HaloTag domains were conjugated with a JFX650 dye to permit visualization of their binding to cell surface Notch1-Ga4 receptors. (FIG. 30A) Fluorescently labeled probody containing the S1 cleavage loop (Probody^V1667D-JF650) binds Notch1-Gal4 only in its TEV protease-cleaved state. (FIG. 30B) Fluorescently labeled probody containing the S1 cleavage loop deletion (Probody^V1667D(ΔS1)-JF650) similarly binds Notch1-Gal4 in a manner that is dependent on TEV protease cleavage. Insets represent emissions from a constitutively expressed H2B-mTurq2 expressed by the analyzed cells.

[2] = target: T2, mouse Notch1 NRR, non-mutated (WT), in the control receptor HA-Halo-antiNRR-TEVs-NRR-GAL4VP64 (mouse, UniProt Q01705 1427-1752); experiment: anti-HA immunoblot (aHA-HRP) of cell lysate and conditioned media of HEK293-FT cells expressing the receptor, after TEVp cleavage of the scFv-NRR linker
T2 construct: Domain of a synthetic receptor on cells; also called non-mutated NRR control; Mouse NRR1-WT
T2 sequence (Q01705 1427-1752 limits assumed, change not shown): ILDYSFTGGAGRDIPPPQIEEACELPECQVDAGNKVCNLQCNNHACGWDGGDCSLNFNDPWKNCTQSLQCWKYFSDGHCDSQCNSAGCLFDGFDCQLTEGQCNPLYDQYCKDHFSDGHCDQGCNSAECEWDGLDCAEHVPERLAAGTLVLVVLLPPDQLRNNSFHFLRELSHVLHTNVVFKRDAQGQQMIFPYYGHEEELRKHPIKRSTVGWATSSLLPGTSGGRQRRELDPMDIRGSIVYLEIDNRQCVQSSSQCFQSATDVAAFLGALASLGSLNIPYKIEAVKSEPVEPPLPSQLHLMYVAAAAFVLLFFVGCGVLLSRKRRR
Description: (§1) HEK293-FT cells were transfected with pcDNA3-based plasmids encoding the indicated receptor with TEVs substrate linker and N-terminal HA tag. (FIG. 11A) cell lysates and conditioned anti-HA immunoblots after 3 hours of TEVp incubation, overwise indicated. FL; full-length receptor, NTF; N-terminal fragment, Ab; ‘A-2’ variant of the anti-NRR1 scFv. (FIG. 11B) Inventors further evaluated the efficiency of TEVs cleavage by comparing an anti-HA blot (which stains all copies of the receptor, including those in the secretory pathway) to a streptavidin blot probing for surface-bound receptor copies by labelling receptors with a cell-impermeant halo-ligand-biotin conjugate. […] Immunoblot of cell lysates and conditioned media of HEK293-FT expressing the ‘V1677D’ design by transient transfection. Cells were stained with cell-impermeant halo-biotin prior to TEVp addition. Cell lysates and conditioned media were collected for immunoblot analysis after 3 hours. Colored triangle markers denote FL (top arrow of top blot), NTF (middle arrow of top blot; top arrow of bottom blot) and cleaved NTF (bottom arrows of both blots) species.
(§2) Inventors then evaluated whether these receptors have different TEVs cleavage efficiencies and anti-NRR1 scFv dissociation kinetics. They immunoblotted for the anti-NRR1 scFv mask in cell lysates and conditioned media in cells expressing the non-mutated WT, V1677D, and A1702P NRR receptors in the absence or addition of exogenous TEVp. Inventors than chose to analyze the V1677D and A1702P mutations since they were the designs with the highest and lowest protease-induced reporter activation, respectively.

[3] = target: T3, mouse Notch1 NRR with the T-ALL mutation A1702P, in the receptor design (mouse, UniProt Q01705 1427-1752); experiment: as above
T3 construct: also called A1691P in mouse Notch1
T3 sequence (Q01705 1427-1752 A1691P limits assumed): as the sequence (Q01705 1427-1752 limits assumed, change not shown) above, with A265P counted along it
Description: as §1, §2

[4] = target: T4, mouse Notch1 NRR with V1677D, in the ProNotch receptor (mouse, UniProt Q01705 1427-1752); experiment: as above
T4 construct: Domain of a synthetic receptor on cells; also called NRR(V1677D); Mouse NRR1-V1677D
T4 sequence (Q01705 1427-1752 V1666D limits assumed): as the sequence (Q01705 1427-1752 limits assumed, change not shown) above, with V240D counted along it
Description: as §1, §2

[5] = target: T5, hNotch1 receptor, stably integrated, on clonal CHO-K1 cells (human, UniProt P46531 19-2555); experiment: fluorescence microscopy of cell-surface bound probody on clonal CHO-K1 cells expressing hNotch1, 40-minute incubation, wash, fixation
T5 construct: whole, on cells; also called human Notch1
T5 sequence (P46531 19-2555): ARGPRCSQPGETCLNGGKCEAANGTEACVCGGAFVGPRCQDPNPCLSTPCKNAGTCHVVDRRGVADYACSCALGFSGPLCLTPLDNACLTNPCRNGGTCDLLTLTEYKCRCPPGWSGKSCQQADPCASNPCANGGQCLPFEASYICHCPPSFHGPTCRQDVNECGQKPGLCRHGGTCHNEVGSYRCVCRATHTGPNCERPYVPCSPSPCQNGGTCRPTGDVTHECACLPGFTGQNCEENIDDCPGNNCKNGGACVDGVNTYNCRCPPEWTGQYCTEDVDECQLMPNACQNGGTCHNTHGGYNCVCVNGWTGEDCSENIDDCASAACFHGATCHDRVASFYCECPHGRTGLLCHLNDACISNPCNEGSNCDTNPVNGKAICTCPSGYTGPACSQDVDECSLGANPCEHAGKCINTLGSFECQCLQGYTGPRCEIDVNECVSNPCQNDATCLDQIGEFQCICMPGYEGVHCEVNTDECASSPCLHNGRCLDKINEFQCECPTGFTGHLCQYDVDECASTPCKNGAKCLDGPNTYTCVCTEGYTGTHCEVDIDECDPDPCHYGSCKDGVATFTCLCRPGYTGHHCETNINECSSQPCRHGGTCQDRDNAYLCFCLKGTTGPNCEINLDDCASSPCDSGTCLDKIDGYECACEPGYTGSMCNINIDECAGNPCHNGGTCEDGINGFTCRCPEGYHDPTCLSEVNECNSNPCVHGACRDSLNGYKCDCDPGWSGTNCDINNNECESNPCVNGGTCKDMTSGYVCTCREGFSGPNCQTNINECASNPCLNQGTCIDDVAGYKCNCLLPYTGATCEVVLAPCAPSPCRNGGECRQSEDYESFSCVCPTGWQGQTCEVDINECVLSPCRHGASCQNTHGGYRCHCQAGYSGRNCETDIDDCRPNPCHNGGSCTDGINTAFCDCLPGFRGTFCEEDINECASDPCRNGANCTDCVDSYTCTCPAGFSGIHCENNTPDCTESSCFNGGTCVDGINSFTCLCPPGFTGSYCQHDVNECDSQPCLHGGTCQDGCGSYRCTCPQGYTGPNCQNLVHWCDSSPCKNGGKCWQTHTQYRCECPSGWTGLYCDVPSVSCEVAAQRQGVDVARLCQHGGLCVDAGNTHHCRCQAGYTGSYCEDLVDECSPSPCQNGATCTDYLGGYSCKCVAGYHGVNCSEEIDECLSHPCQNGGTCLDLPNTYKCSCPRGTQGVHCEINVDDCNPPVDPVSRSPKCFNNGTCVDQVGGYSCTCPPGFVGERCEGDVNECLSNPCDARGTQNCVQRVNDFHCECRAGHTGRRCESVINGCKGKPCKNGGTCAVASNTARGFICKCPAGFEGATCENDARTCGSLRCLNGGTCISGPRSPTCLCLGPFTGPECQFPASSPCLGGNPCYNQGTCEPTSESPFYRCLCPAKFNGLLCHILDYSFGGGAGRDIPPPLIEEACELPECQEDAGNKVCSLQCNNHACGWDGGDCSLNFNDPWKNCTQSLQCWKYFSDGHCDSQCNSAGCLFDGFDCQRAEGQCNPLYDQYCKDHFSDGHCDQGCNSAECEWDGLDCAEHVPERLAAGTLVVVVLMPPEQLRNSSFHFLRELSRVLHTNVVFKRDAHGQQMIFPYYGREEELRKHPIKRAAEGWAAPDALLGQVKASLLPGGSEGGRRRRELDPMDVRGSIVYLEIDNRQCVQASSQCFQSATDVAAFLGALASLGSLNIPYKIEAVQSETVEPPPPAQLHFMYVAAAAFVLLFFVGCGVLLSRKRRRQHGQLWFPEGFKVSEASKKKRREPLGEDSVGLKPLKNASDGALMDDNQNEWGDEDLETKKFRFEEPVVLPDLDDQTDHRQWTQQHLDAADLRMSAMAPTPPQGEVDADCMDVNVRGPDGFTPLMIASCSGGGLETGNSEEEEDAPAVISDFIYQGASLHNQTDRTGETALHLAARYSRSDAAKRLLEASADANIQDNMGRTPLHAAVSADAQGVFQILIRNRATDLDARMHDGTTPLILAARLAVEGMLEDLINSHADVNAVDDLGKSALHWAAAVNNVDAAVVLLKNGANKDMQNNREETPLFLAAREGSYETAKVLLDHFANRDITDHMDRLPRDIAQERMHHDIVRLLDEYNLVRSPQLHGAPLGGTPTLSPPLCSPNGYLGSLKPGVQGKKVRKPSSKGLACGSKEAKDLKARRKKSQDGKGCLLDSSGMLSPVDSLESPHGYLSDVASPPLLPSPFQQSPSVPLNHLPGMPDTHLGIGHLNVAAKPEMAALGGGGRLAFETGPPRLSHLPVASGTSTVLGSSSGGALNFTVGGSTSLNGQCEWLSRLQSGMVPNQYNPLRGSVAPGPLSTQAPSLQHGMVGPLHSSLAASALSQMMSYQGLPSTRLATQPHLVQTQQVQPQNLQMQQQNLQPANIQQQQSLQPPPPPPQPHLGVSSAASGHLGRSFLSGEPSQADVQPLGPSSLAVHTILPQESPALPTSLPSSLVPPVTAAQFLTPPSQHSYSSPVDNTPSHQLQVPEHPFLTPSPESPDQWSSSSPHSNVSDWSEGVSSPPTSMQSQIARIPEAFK
Text: FIGS. 33A-33C present schematics and data showing activation of a probody/masked antibody with specificity against human Notch1 (hNotch) NRR. (FIG. 33A) Schematic depicting the TEV protease (TEVp)-mediated activation and binding of the anti-hNotch1 probody. The probody sequence used contains the V1677D mutant NRR as a “mask” and is linked to an anti-hNotch1 scFv via a linker containing a TEVp substrate sequence. Upon cleavage by TEVp, the NRR mask dissociates from the scFv and is thus able to bind its corresponding antigen. A fluorophore is linked to the probody sequence to permit visualization. (FIGS. 33B and 33C) Tests of scFv binding to hNotch1. Clonal CHO-K1 cells expressing a stably integrated hNotch1 receptor were incubated with the body alone (FIG. 33B) or with the pro body treated with TEVp (FIG. 33C). Following a 40-minute incubation, probody-containing media was removed, and cells were washed with fresh media prior to fixation and DNA staining with Hoechst-JF526 (inset). Cells were imaged to detect cell-surface bound (activated) probody and Hoechst-JF526. Binding to hNotch1 was observed only with the TEVp-cleaved probody sequence. The antibody sequence used in the body can inhibit signaling by wild-type and various disease-associated hNotch1 mutations (Wu et al. Nature 464: 1052-1057 (2010)).

[6] = target: T6, human Notch1-derived receptor overexpressed on CHO-K1 cells (human, UniProt P46531 19-1762, limits assumed); experiment: fluorescence microscopy of JFX650-labelled probody on CHO-K1 cells overexpressing a human Notch1-derived receptor
T6 construct: Cells also express H2B-mTurq; also called Notch1 receptors
Description: FIG. 37 present data showing Probody with a mask based on the wild-type Notch1-NRR binds Notch1 Receptors in a Cleavage-Dependent Manner. A probody containing the anti-NRR1 scFv was fused to a TEV protease cleavable linker and the wild-type Notch1 NRR. The probodies also contained a HaloTag for labeling with a JFX650 dye. Binding of the probody to Notch1 receptors was tested using uncleaved and TEV protease-cleaved probody. The evaluated cells were based on CHO-K1 celle overexpressing a human Notch1-derived receptor; cells also expressed H2B-mTurq as a fluorescent marker (inset).

binding result [1]: no binding
B1: TEV-cleavable Anti-Notch1 probody, Genentech scFv, S1 loop deletion (HaloTag-anti-NRR1-scFv-TEVcs-msNRR1^V1677D-deltaS1), intact (uncleaved) (other)
chain: YPYDVPDYATGMAEIGTGFPFDPHYVEVLGERMHYVDVGPRDGTPVLFLHGNPTSSYVWRNIIPHVAPTHRCIAPDLIGMGKSDKPDLGYFFDDHVRFMDAFIEALGLEEVVLVIHDWGSALGFHWAKRNPERVKGIAFMEFIRPIPTWDEWPEFARETFQAFRTTDVGRKLIIDQNVFIEGTLPMGVVRPLTEVEMDHYREPFLNPVDREPLWRFPNELPIAGEPANIVALVEEYMDWLHQSPVPKLLFWGTPGVLIPPAEAARLAKSLPNCKAVDIGPGLNLLQEDNPDLIGSEIARWLSTLEISGGGGGSTGDGGGGEVQLVESGGGLVQPGGSLRLSCAASGFTFSSYWIHWVRQAPGKGLEWVARINPPNRSNQYADSVKGRFTISADTSKNTAYLQMNSLRAEDTAVYYCARGSGFRWVMDYWGQGTLVTVSSGGSSRSSSSGGGGSGGGGDIQMTQSPSSLSASVGDRVTITCRASQDVSTAVAWYQQKPGKAPKLLIYSASFLYSGVPSRFSGSGSGTDFTLTISSLQPEDFATYYCQQFYTTPSTFGQGTKVEIKGSNSGGTLEGGGSGENLYFQGGGGGRTGGGSEQKLISEEDLGGGSILDYSFTGGAGRDIPPPQIEEACELPECQVDAGNKVCNLQCNNHACGWDGGDCSLNFNDPWKNCTQSLQCWKYFSDGHCDSQCNSAGCLFDGFDCQLTEGQCNPLYDQYCKDHFSDGHCDQGCNSAECEWDGLDCAEHVPERLAAGTLVLVVLLPPDQLRNNSFHFLRELSHVLHTNVVFKRDAQGQQMIFPYYGMDIRGSIDYLEIDNRQCVQSSSQCFQSATDVAAFLGALASLGSLNIPYKIEAVKSEPVEGPV
modifications: HaloTag domain conjugated with JFX650 dye
notes: also called Probody^V1667D(ΔS1); Probody^V1667D(ΔS1)-JF650

binding result [2]: binds | binding result [3]: binds | binding result [4]: binds
B2: 'A-2' variant of the anti-NRR1 scFv (mask domain) (scFv)
scFv: EVQLVESGGGLVQPGGSLRLSCAASGFTFSSYWIHWVRQAPGKGLEWVARINPPNRSNQYADSVKGRFTISADTSKNTAYLQMNSLRAEDTAVYYCARGSGFRWVMDYWGQGTLVTVSSGGSSRSSSSGGGGSGGGGDIQMTQSPSSLSASVGDRVTITCRASQDVSTAVAWYQQKPGKAPKLLIYSASFLYSGVPSRFSGSGSGTDFTLTISSLQPEDFATYYCQQFYTTPSTFGQGTKVEIK
notes: Tested as the N-terminal mask domain of receptors HA-Halo-antiNRR-TEVs-NRR-GAL4VP64, that is on the same polypeptide as the NRR until TEVp cleaves the linker; carries HA tag and HaloTag at its N-terminus; also called A2 scFv

binding result [5]: no binding | binding result [1]: no binding
B3: TEV-cleavable Anti-Notch1 probody, Genentech scFv (HaloTag-anti-NRR1-scFv-TEVcs-msNRR1^V1677D), intact (uncleaved) (other)
chain: YPYDVPDYATGMAEIGTGFPFDPHYVEVLGERMHYVDVGPRDGTPVLFLHGNPTSSYVWRNIIPHVAPTHRCIAPDLIGMGKSDKPDLGYFFDDHVRFMDAFIEALGLEEVVLVIHDWGSALGFHWAKRNPERVKGIAFMEFIRPIPTWDEWPEFARETFQAFRTTDVGRKLIIDQNVFIEGTLPMGVVRPLTEVEMDHYREPFLNPVDREPLWRFPNELPIAGEPANIVALVEEYMDWLHQSPVPKLLFWGTPGVLIPPAEAARLAKSLPNCKAVDIGPGLNLLQEDNPDLIGSEIARWLSTLEISGGGGGSTGDGGGGEVQLVESGGGLVQPGGSLRLSCAASGFTFSSYWIHWVRQAPGKGLEWVARINPPNRSNQYADSVKGRFTISADTSKNTAYLQMNSLRAEDTAVYYCARGSGFRWVMDYWGQGTLVTVSSGGSSRSSSSGGGGSGGGGDIQMTQSPSSLSASVGDRVTITCRASQDVSTAVAWYQQKPGKAPKLLIYSASFLYSGVPSRFSGSGSGTDFTLTISSLQPEDFATYYCQQFYTTPSTFGQGTKVEIKGSNSGGTLEGGGSGENLYFQGGGGGRTGGGSEQKLISEEDLGGGSILDYSFTGGAGRDIPPPQIEEACELPECQVDAGNKVCNLQCNNHACGWDGGDCSLNFNDPWKNCTQSLQCWKYFSDGHCDSQCNSAGCLFDGFDCQLTEGQCNPLYDQYCKDHFSDGHCDQGCNSAECEWDGLDCAEHVPERLAAGTLVLVVLLPPDQLRNNSFHFLRELSHVLHTNVVFKRDAQGQQMIFPYYGHEEELRKHPIKRSTVGWATSSLLPGTSGGRQRRELDPMDIRGSIDYLEIDNRQCVQSSSQCFQSATDVAAFLGALASLGSLNIPYKIEAVKSEPVEGPV
modifications: HaloTag domain conjugated with a fluorescent HaloTag-ligand dye in the binding tests (JFX650; Halo-JF635i in paragraph 360)
notes: Secreted protein; also called Probody^V1667D; Probody^V1667D-JF650

binding result [6]: no binding
B4: TEV-cleavable Anti-Notch1 probody, Genentech scFv, Wild-type NRR (HaloTag-anti-NRR1-scFv-TEVcs-msNRR1^WT), intact (uncleaved) (other)
chain: YPYDVPDYATGMAEIGTGFPFDPHYVEVLGERMHYVDVGPRDGTPVLFLHGNPTSSYVWRNIIPHVAPTHRCIAPDLIGMGKSDKPDLGYFFDDHVRFMDAFIEALGLEEVVLVIHDWGSALGFHWAKRNPERVKGIAFMEFIRPIPTWDEWPEFARETFQAFRTTDVGRKLIIDQNVFIEGTLPMGVVRPLTEVEMDHYREPFLNPVDREPLWRFPNELPIAGEPANIVALVEEYMDWLHQSPVPKLLFWGTPGVLIPPAEAARLAKSLPNCKAVDIGPGLNLLQEDNPDLIGSEIARWLSTLEISGGGGGSTGDGGGGEVQLVESGGGLVQPGGSLRLSCAASGFTFSSYWIHWVRQAPGKGLEWVARINPPNRSNQYADSVKGRFTISADTSKNTAYLQMNSLRAEDTAVYYCARGSGFRWVMDYWGQGTLVTVSSGGSSRSSSSGGGGSGGGGDIQMTQSPSSLSASVGDRVTITCRASQDVSTAVAWYQQKPGKAPKLLIYSASFLYSGVPSRFSGSGSGTDFTLTISSLQPEDFATYYCQQFYTTPSTFGQGTKVEIKGSNSGGTLEGGGSGENLYFQGGGGGRTGGGSEQKLISEEDLGGGSILDYSFTGGAGRDIPPPQIEEACELPECQVDAGNKVCNLQCNNHACGWDGGDCSLNFNDPWKNCTQSLQCWKYFSDGHCDSQCNSAGCLFDGFDCQLTEGQCNPLYDQYCKDHFSDGHCDQGCNSAECEWDGLDCAEHVPERLAAGTLVLVVLLPPDQLRNNSFHFLRELSHVLHTNVVFKRDAQGQQMIFPYYGHEEELRKHPIKRSTVGWATSSLLPGTSGGRQRRELDPMDIRGSIVYLEIDNRQCVQSSSQCFQSATDVAAFLGALASLGSLNIPYKIEAVKSEPVEGPV
modifications: HaloTag labelled with JFX650 dye
notes: also called Probody with a mask based on the wild-type Notch1-NRR
